Here are results for two variants from IntAct's records for PubMed 15901771.

B1: Potassium voltage-gated channel protein eag (Drosophila melanogaster (Fruit fly)), Q02280 (parent)
chain: MPGGRRGLVAPQNTFLENIIRRSNSQPDSSFLLANAQIVDFPIVYCNESFCKISGYNRAEVMQKSCRYVCGFMYGELTDKETVGRLEYTLENQQQDQFEILLYKKNNLQCGCALSQFGKAQTQETPLWLLLQVAPIRNERDLVVLFLLTFRDITALKQPIDSEDTKGVLGLSKFAKLARSVTRSRQFSAHLPTLKDPTKQSNLAHMMSLSADIMPQYRQEAPKTPPHILLHYCAFKAIWDWVILCLTFYTAIMVPYNVAFKNKTSEDVSLLVVDSIVDVIFFIDIVLNFHTTFVGPGGEVVSDPKVIRMNYLKSWFIIDLLSCLPYDVFNAFDRDEDGIGSLFSALKVVRLLRLGRVVRKLDRYLEYGAAMLILLLCFYMLVAHWLACIWYSIGRSDADNGIQYSWLWKLANVTQSPYSYIWSNDTGPELVNGPSRKSMYVTALYFTMTCMTSVGFGNVAAETDNEKVFTICMMIIAALLYATIFGHVTTIIQQMTSATAKYHDMLNNVREFMKLHEVPKALSERVMDYVVSTWAMTKGLDTEKVLNYCPKDMKADICVHLNRKVFNEHPAFRLASDGCLRALAMHFMMSHSAPGDLLYHTGESIDSLCFIVTGSLEVIQDDEVVAILGKGDVFGDQFWKDSAVGQSAANVRALTYCDLHAIKRDKLLEVLDFYSAFANSFARNLVLTYNLRHRLIFRKVADVKREKELAERRKNEPQLPQNQDHLVRKIFSKFRRTPQVQAGSKELVGGSGQSDVEKGDGEVERTKVFPKAPKLQASQATLARQDTIDEGGEVDSSPPSRDSRVVIEGAAVSSATVGPSPPVATTSSAAAGAGVSGGPGSGGTVVAIVTKADRNLALERERQIEMASSRATTSDTYDTGLRETPPTLAQRDLIATVLDMKVDVRLELQRMQQRIGRIEDLLGELVKRLAPGAGSGGNAPDNSSGQTTPGDEICAGCGAGGGGTPTTQAPPTSAVTSPVDTVITISSPGASGSGSGTGAGAGSAVAGAGGAGLLNPGATVVSSAGGNGLGPLMLKKRRSKSRKAPAPPKQTLASTAGTATAAPAGVAGSGMTSSAPASADQQQQHQSTADQSPTTPGAELLHLRLLEEDFTAAQLPSTSSGGAGGGGGSGSGATPTTPPPTTAGGSGSGTPTSTTATTTPTGSGTATRGKLDFL
partner: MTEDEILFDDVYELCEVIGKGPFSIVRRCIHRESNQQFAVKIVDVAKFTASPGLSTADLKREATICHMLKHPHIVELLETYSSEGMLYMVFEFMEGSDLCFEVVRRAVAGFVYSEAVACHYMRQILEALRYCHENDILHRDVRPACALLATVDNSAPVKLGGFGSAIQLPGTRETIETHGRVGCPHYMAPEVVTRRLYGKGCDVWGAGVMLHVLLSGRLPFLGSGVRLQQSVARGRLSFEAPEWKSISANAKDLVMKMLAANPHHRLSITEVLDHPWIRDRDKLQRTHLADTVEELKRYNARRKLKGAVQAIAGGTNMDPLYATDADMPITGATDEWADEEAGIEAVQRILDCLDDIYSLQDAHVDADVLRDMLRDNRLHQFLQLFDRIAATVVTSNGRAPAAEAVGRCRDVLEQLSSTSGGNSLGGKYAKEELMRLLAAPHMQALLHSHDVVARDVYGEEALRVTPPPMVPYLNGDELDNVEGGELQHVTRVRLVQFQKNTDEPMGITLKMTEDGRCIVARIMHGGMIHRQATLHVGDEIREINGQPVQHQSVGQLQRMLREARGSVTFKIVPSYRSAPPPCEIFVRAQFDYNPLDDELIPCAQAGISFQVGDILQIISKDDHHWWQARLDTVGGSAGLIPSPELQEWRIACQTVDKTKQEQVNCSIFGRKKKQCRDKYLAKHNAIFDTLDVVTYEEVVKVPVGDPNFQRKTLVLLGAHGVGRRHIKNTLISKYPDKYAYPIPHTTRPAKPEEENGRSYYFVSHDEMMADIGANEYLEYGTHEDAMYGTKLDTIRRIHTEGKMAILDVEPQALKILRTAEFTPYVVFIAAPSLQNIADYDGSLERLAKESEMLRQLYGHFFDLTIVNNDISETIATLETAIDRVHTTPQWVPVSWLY

In this experiment the parent is B1. The following applies: with cskp_drome CASK.
As to R1037L, the “effect of a mutation on the interaction” value is “decreasing interaction”. For K1040M the value was “decreasing interaction”.
